Values quoted from earlier work, collected in PMC4321732.

Columns and labels:
[1] = biological target: p53K382me2 (Homo sapiens) (UniProt P04637)
[2] = biological target: Histone H4K20me2 (Homo sapiens) (UniProt P62805)
[3] = biological target: p53K370me2 (Homo sapiens) (UniProt P04637)
Sequence of p53K370me2 (Homo sapiens) (P04637 whole entry): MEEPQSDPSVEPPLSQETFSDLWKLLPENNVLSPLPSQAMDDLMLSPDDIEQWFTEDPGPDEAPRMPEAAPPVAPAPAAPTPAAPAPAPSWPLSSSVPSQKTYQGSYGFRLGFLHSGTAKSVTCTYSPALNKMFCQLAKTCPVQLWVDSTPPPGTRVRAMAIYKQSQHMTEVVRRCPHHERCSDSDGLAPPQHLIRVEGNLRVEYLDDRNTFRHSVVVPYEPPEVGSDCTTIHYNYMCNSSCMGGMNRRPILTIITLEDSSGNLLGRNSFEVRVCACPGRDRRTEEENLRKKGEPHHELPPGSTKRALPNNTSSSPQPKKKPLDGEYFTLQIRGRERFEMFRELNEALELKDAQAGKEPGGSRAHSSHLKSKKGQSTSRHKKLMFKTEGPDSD

Sequence of 53BP1 TTD tandem Tudor domain (Q12888 1484-1603): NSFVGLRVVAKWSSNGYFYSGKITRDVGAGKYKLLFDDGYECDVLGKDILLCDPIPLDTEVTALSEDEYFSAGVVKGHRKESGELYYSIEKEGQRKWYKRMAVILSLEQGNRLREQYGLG
Sequence of p53K382me2 (Homo sapiens) (P04637 whole entry): as the sequence (P04637 whole entry) above

Kd [1]: 900 nM | Kd [2]: 1300 nM | Kd [3]: 20000 nM
Substance: 53BP1 TTD tandem Tudor domain (from UniProt Q12888)
